{"source": "paper PMC10415362", "about": "“Mechanism of U6 snRNA oligouridylation by human TUT1”", "binders": {"B1": {"name": "U6_mini (structured_RNA)", "RNA": "GGAUACUAAAAUUGGAACGAUACAGAGUUCGCUCGUGAAGCGUUCCAUAUUUU"}}, "target": "T1, hTUT1_ZF-RRM (Homo sapiens, UniProt Q9H6E5 1-140)", "T1 sequence": "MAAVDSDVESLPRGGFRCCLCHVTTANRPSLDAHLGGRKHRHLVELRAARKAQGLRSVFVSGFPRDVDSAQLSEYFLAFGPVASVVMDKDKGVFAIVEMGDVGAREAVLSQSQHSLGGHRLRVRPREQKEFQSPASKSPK", "assay": "EMSA; 10 mM MgCl2; EMSA: 50 mM Tris-Cl pH 8.5, 100 mM NaCl, 10 mM MgCl2, 10 mM beta-mercaptoethanol, 10% glycerol, room temperature 15 min; RNA 50 nM (U6) or 100 nM (U6_mini); protein 0-1000 nM", "conditions": "protein: recombinant; tags: His tag implied (pET22b, Ni-NTA); hairpin with 5' single strand"}
{"binder": "B1", "values": [{"measurement": "Kd", "value": "204 ± 41", "unit": "nM"}]}
